Test system: T1, RSV attachment (G) glycoprotein of RSV strain A2
T1 sequence: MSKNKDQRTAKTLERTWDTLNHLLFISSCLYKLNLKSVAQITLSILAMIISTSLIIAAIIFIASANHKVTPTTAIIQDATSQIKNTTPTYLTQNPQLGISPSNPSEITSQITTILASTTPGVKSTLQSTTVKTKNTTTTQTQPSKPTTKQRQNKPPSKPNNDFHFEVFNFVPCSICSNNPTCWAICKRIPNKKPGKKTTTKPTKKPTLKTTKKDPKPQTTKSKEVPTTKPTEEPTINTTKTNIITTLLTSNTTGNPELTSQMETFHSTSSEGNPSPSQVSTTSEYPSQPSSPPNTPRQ

With cathepsin L the “G protein cleavage on virions treated in vitro with 50 ng/ul cathepsin L at pH 5.5 (immunoblot)” value was “When incubated with cathepsin L after growth, the virus that was grown in the presence of a cathepsin L inhibitor contained a cleaved G protein”.
